From patent US20200299395A1 (MOGAM INSTITUTE FOR BIOMEDICAL RESEARCH, published 2020)
Positions count from the first letter of the chain named.

Columns and labels:
[1] = target: BCMA expressed on multiple myeloma cell lines H929 and MM1S (UniProt Q02223); assay: flow cytometry, H929 cells, negative control without VH domain [B), H929 table]
[2] = target: BCMA expressed on multiple myeloma cell lines H929 and MM1S (UniProt Q02223); assay: flow cytometry, MM1S cells, negative control without VH domain [B), MM1S table]
[3] = target: BCMA expressed on multiple myeloma cell lines H929 and MM1S (UniProt Q02223); assay: flow cytometry, H929 cells, negative control without VH-Fc protein [B), H929 table]
[4] = target: BCMA expressed on multiple myeloma cell lines H929 and MM1S (UniProt Q02223); assay: flow cytometry, MM1S cells, negative control without VH-Fc protein [B), MM1S table]
[5] = target: T1, recombinant human BCMA (Cat. No. 193-BC, R&D Systems) (human, UniProt Q02223 1-54); assay: BLI (Octet), BCMA fixed on Anti-Fc Biosensor, antibody 0.078 to 5 nM
T1 sequence (looked up): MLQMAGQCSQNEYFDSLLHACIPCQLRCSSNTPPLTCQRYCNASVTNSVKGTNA
Description: Among the selected 20 clones, Clones MN1, MN5, MN7, and MN8 which were expected to have excellent binding capacity to BCMA-expressing tumor cell lines were purified. Quantitative binding capacity (affinity) of Clones MN1, MN5, MN7, and MN8 to recombinant human BCMA was measured using the OCTET system (Pall Corporation). BCMA (Cat. No. 193-BC, R&D Systems) purified from HEK293 cells was fixed to Biosensor (Pall Corporation). Then, the MN1, MN5, MN7, or MN8 antibody diluted sequentially in Kinetic bfr (Pall Corporation) was allowed to associate in a concentration range of 0.078 nM to 5 nM for 120 seconds, and was allowed to dissociate by performing flowing at a flow rate of 30 μl/min for 1,800 seconds. Dissociation of the BCMA-bound antibody was induced by flowing 10 mM glycine-HCl pH 1.5 at a flow rate of 30 μl/min for 30 seconds (Table 3). The binding affinity was obtained as the kinetic parameters (Kon and Koff) and the equilibrium dissociation constant (KD) using the Octet system data analysis software (Table 4).

[6] = target: T2, BCMA expressed on multiple myeloma cell lines H929 and MM1S (UniProt Q02223 1-184, limits assumed); assay: flow cytometry, H929 cells, purified VH domain (text: 1 uM); control iso_anti-His-PE Mean 13.5 [B), H929 table]
T2 construct: whole, on cells; Endogenous BCMA on tumour cell lines; also called BMCA; cell surface BCMA
T2 sequence (looked up): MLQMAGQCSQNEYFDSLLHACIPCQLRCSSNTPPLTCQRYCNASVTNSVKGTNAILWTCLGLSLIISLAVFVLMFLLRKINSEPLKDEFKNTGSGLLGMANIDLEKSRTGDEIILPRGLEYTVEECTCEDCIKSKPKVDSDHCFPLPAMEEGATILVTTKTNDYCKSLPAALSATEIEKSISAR
Description: (§1) Multiple myeloma cells in culture were placed in a 50 ml tube and centrifuged at 1,000 rpm for 5 minutes at room temperature. Then, the culture solution was discarded and washing with PBS was performed once. The resultant was suspended in FACS buffer and then transferred to a round bottom tube. Centrifugation was performed at 2,000 rpm for 3 minutes at room temperature. The supernatant was discarded and loosening was performed with FACS buffer so as to obtain 1×10⁶ cells/100 μl. Then, 1 uM of the purified candidate antibody was added thereto at 4° C.
(§2) As a control, FACS buffer containing no candidate antibody was added. After 30 minutes, washing with FACS buffer was performed twice. […] The cells were collected by centrifugation at 2,000 rpm for 3 minutes, and then 200 μl of fixation buffer was added thereto. The cells were resuspended and measured by FACS Calibur™. The results are illustrated in FIGS. 4 and 5.

[7] = target: T2, BCMA expressed on multiple myeloma cell …; assay: flow cytometry, MM1S cells, purified VH domain (text: 1 uM); control iso_anti-His-PE Mean 4.19 [B), MM1S table]
Description: as §1, §2

[8] = target: T2, BCMA expressed on multiple myeloma cell …; assay: flow cytometry, H929 cells, purified VH domain (text: 1 uM); control iso_anti-His-PE Median 10.8 [B), H929 table]
Description: as §1, §2

[9] = target: T2, BCMA expressed on multiple myeloma cell …; assay: flow cytometry, MM1S cells, purified VH domain (text: 1 uM); control iso_anti-His-PE Median 3.74 [B), MM1S table]
Description: as §1, §2

[10] = target: T2, BCMA expressed on multiple myeloma cell …; assay: flow cytometry, H929 cells, purified VH-Fc protein, 100nM per the sample name; control anti-hFc-PE Mean 5.41 [B), H929 table]
[11] = target: T2, BCMA expressed on multiple myeloma cell …; assay: flow cytometry, MM1S cells, purified VH-Fc protein, 100nM per the sample name; control anti-hFc-PE Mean 2.81 [B), MM1S table]
[12] = target: T2, BCMA expressed on multiple myeloma cell …; assay: flow cytometry, H929 cells, purified VH-Fc protein, 100nM per the sample name; control anti-hFc-PE Median 4.82 [B), H929 table]
[13] = target: T2, BCMA expressed on multiple myeloma cell …; assay: flow cytometry, MM1S cells, purified VH-Fc protein, 100nM per the sample name; control anti-hFc-PE Median 2.50 [B), MM1S table]

Molecule: iso_anti-His-PE (antibody)
- Mean FL2-H [1]: 13.5
- Median FL2-H [1]: 10.8
- Mean FL2-H [2]: 4.19
- Median FL2-H [2]: 3.74

Molecule: anti-hFc-PE (antibody)
- Mean FL2-H [3]: 5.41
- Median FL2-H [3]: 4.82
- Mean FL2-H [4]: 2.81
- Median FL2-H [4]: 2.5

B1: Clone MN8 (VH domain) (VHH)
VHH: EVQLVESGGGLVQPGGSLRLSCAASGFTFSSYAMGWVRQAPGKGPEVVSLISGSGGSTWYDDSVKGRFTISRDNSKNTLYLQMNSLRAEDTAVYYCASPEDAPSYSRWGQGTLVTVSS
notes: Single-domain antibody: a VH domain from a synthetic phage library, not camelid; Expressed in E. coli
- Kd [5]: 1.17 nM
- Mean FL2-H [6]: 15.1
- Mean FL2-H [7]: 4.93
- Median FL2-H [8]: 12.9
- Median FL2-H [9]: 4.43

B2: MN8 VH-Fc protein (Fc fusion)
chain: B1 VHH
notes: VH domain fused to a human IgG1 Fc domain; not shown: human IgG1 Fc domain
- Mean FL2-H [10]: 14
- Mean FL2-H [11]: 3.13
- Median FL2-H [12]: 10.3
- Median FL2-H [13]: 2.77

B3: Clone MN1 (VH domain) (VHH)
VHH: EVQLVESGGGLVQPGGSLRLSCAASGFTFTAYDMGWVRQAPGKGPEWVSLISSDSGDTWYDDSVKGRFTISRDNSKNTLYLQMNSLRAEDTAVYYCARLGAYSTTYDYWGQGTLVTVSS
notes: as for B1
- Kd [5]: 0.7 nM
- Mean FL2-H [6]: 62.9
- Mean FL2-H [7]: 24
- Median FL2-H [8]: 50.4
- Median FL2-H [9]: 14.3

B4: MN1 VH-Fc protein (Fc fusion)
chain: B3 VHH
notes: as for B2
- Mean FL2-H [10]: 134
- Mean FL2-H [11]: 49.9
- Median FL2-H [12]: 101
- Median FL2-H [13]: 42.1

B5: Clone MN5 (VH domain) (VHH)
VHH: EVQLVESGGGLVQPGGSLRLSCAASGFTFSSYAMGWVRQAPGKGPEVVSLISGSGGSTWYDDSVKGRFTISRDNSKNTLYLQMNSLRAEDTAVYYCASREDNMTTWGQGTLVTVSS
notes: as for B1
- Kd [5]: 2.22 nM
- Mean FL2-H [6]: 25.6
- Mean FL2-H [7]: 13.9
- Median FL2-H [8]: 22.9
- Median FL2-H [9]: 9.81

B6: Clone MN7 (VH domain) (VHH)
VHH: B5 VHH with R99P, N102M, M103Y, T104Q
notes: as for B1
- Kd [5]: 2.23 nM
- Mean FL2-H [6]: 14.8
- Mean FL2-H [7]: 5.38
- Median FL2-H [8]: 11.8
- Median FL2-H [9]: 4.49

B7: MN5 VH-Fc protein (Fc fusion)
chain: B5 VHH
notes: as for B2
- Mean FL2-H [10]: 10.6
- Mean FL2-H [11]: 3.02
- Median FL2-H [12]: 7.78
- Median FL2-H [13]: 2.64

B8: MN7 VH-Fc protein (Fc fusion)
chain: B5 VHH with R99P, N102M, M103Y, T104Q
notes: as for B2
- Mean FL2-H [10]: 10.1
- Mean FL2-H [11]: 2.89
- Median FL2-H [12]: 7.92
- Median FL2-H [13]: 2.55
